Assay results published in the supplement of paper PMC10899765.

Assays:
Conditions in all cases: 20 nM; 72 h
MCF10A [1] = experiment: percent viability (nuclei count relative to siNT); higher = more viable cells
Experimental: (§1)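 After 72 h, cells were fixed and stained with Hoechst and anti-fibrillarin, and nucleoli per nucleus were counted with CellProfiler. Values are plate-adjusted percent effect for the one-nucleolus and 5+ nucleoli phenotypes, normalised to siNT (0%) and to the positive controls siNOL11 or siKIF11 (100%), as the mean of biological triplicates. Percent viability is the nuclei count relative to siNT.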

MCF10A [2] = experiment: 5+ nucleoli phenotype percent effect (relative to siNT 0% and siKIF11 100%); higher = more cells with five or more nucleoli
Experimental: as §1

MCF10A [3] = experiment: one-nucleolus phenotype percent effect (relative to siNT 0% and siNOL11 100%); higher = more cells with one nucleolus (ribosome biogenesis inhibition)
Experimental: as §1

Sequence	percent viability (MCF10A [1])	5+ nucleoli phenotype percent effect (MCF10A [2])	one-nucleolus phenotype percent effect (MCF10A [3])
GCCCCUGGGCCUAUCCUAGAA [hsa-miR-331-3p]	61.2%	8.19%	6.3%
GGAGUGGGCUGGUGGUU [hsa-miR-4481]	37.8%	6.11%	5.61%
ACAGGUGAGGUUCUUGGGAGCC [hsa-miR-125a-3p]	62.4%	-0.517%	5.16%
AUGCGGACCUGGGUUAGCGGAGU [hsa-miR-4754]	38.8%	-38.9%	47.4%
CACACACACACACACACGUAU [hsa-miR-8485]	15.8%	-36.9%	57.6%
UCCCAGGGUCUGGUCAGAGUUG [hsa-miR-6764-5p]	25.8%	-18.4%	29.5%
GAGUGCCUUCUUUUGGAGCGUU [hsa-miR-515-3p]	50.3%	9.82%	-6.31%
AAAAGUACUUGCGGAUUUUGCU [hsa-miR-548k]	75.4%	36.4%	-15.1%
AGAGGUAGGUGUGGAAGAA [hsa-miR-4458]	42.7%	36.9%	-20.7%
UAUGUGACCUCGGAUGAAUCA [hsa-miR-4501]	19.8%	-23.6%	40.8%
UGCAGGGGUCGGGUGGGCCAGG [hsa-miR-6722-3p]	45.7%	-25.2%	9%
UCUGGGUGCAGUGGGGGUU [hsa-miR-6776-5p]	2.41%	-32.7%	24.4%
UCCUGCCACCUCCUCCGCAG [hsa-miR-6727-3p]	32.5%	-26.4%	19.2%
AGGCGAUGUGGGGAUGUAGAGA [hsa-miR-6717-5p]	30.5%	-15.8%	19.4%
AGUUUUGCAUAGUUGCACUACA [hsa-miR-19a-5p]	124%	35.3%	-20%
CUGCCAUGUCUAAGAAGAAAAC [hsa-miR-4659a-5p]	68.5%	-0.515%	-12.3%
AAUGUUUUUUCCUGUUUCC [hsa-miR-4307]	63.9%	3.12%	-12.3%
UAAAUUUCACCUUUCUGAGAAGA [hsa-miR-513c-3p]	28.5%	-1.66%	15.7%
GCAGCCCAGCUGAGGCCUCUG [hsa-miR-4690-3p]	119%	21.1%	-17.1%
ACCUGGACCCAGCGUAGACAAAG [hsa-miR-3690]	79.1%	65%	-25.7%

Sequence	percent viability (MCF10A [1])	5+ nucleoli phenotype percent effect (MCF10A [2])	one-nucleolus phenotype percent effect (MCF10A [3])
GUUGGGGUGCAGGGGUCUGCU [hsa-miR-5572]	19.7%	-19.8%	43.3%
AGCAGGUGCGGGGCGGCG [hsa-miR-3665]	33%	-20.8%	40.6%
GAAAUCAAGCGUGGGUGAGACC [hsa-miR-551b-5p]	57.5%	40.3%	-15.5%
AGCAGAAGCAGGGAGGUUCUCCCA [hsa-miR-298]	25.9%	-22.8%	17.9%
CAGAGGGAAUACAGAGGGCAAU [hsa-miR-6873-5p]	36.7%	7.98%	20%
UAAGUGCUUCCAUGCUU [hsa-miR-302e]	93.6%	65.3%	-16.8%
UCGGCCUGACCACCCACCCCAC [hsa-miR-1234-3p]	75.7%	54.9%	-20.1%
UUGAGAAUGAUGAAUCAUUAGG [hsa-miR-580]	91.4%	25.6%	-18.3%
UCCAGUACCACGUGUCAGGGCCA [hsa-miR-770-5p]	55.6%	-28.6%	29.4%
UCAAGGCCAGAGGUCCCACAGCA [hsa-miR-3922-5p]	30.9%	-12.7%	6.44%
GAAAGCGCUUCCCUUUGCUGGA [hsa-miR-518a-3p]	59.1%	-15.5%	17.4%
UGAGUGACAGGGGAAAUGGGGA [hsa-miR-1236-5p]	36.9%	-4.72%	-0.0652%
UAGGUGGCGCCGGAGGAGUCAUU [hsa-miR-6815-5p]	13.2%	-6.84%	20.3%
GGGACCCAGGGAGAGACGUAAG [hsa-miR-711]	80.1%	30.4%	-15.3%
CUGAAGCUCAGAGGGCUCUGAU [hsa-miR-127-5p]	45.5%	-40.5%	39%
AGGUGGAUGCAAUGUGACCUCA [hsa-miR-3165]	3.1%	-22.9%	1.14%
CAGGGCCUCACUGUAUCGCCCA [hsa-miR-4512]	20%	0.0146%	18.5%
UAGGCCUUUAGAUCACUUAAA [hsa-miR-1245b-5p]	21.5%	-5.02%	19.2%
UGUUGUCAUGUUUUUUCCCUAG [hsa-miR-6755-3p]	26%	34.6%	-6.42%
GUAAGCAGGGGCUCUGGGUGA [hsa-miR-6792-5p]	30.2%	-36.8%	56.4%

Sequence	percent viability (MCF10A [1])	5+ nucleoli phenotype percent effect (MCF10A [2])	one-nucleolus phenotype percent effect (MCF10A [3])
UACGCGCAGACCACAGGAUGUC [hsa-miR-3939]	38.1%	11.7%	-5.45%
ACAGUAGUCUGCACAUUGGUUA [hsa-miR-199a-3p]	67.2%	18.7%	-13.9%
CAAUGUGAUCUUUUGGAUGUA [hsa-miR-8066]	30.2%	-37.9%	56.9%
AUGUGAUUGACGGCUGACUCCA [hsa-miR-8070]	23%	-27.8%	26.5%
GGUGGGGGCUGUUGUUU [hsa-miR-4447]	24.5%	-20.8%	38.7%
CUCGUGGGCUCUGGCCACGGCC [hsa-miR-3677-3p]	56.2%	-9.65%	-2.83%
GCGACUCUGAAAACUAGAAGGU [hsa-miR-4431]	82.9%	34.2%	-23.7%
CCUAUUCUUGGUUACUUGCACG [hsa-miR-26a-1-3p]	49.7%	-5.8%	4.57%
UGAGGGAGUGGAUUGUAUG [hsa-miR-6130]	16.7%	-15.2%	-1.2%
AGGCAGUGUAUUGUUAGCUGGC [hsa-miR-449b-5p]	128%	36.8%	-25.7%
UUUGGACAGAAAACACGCAGGU [hsa-miR-4520b-3p]	87%	50%	-21.6%
UGGAGGAGAAGGAAGGUGAUG [hsa-miR-765]	21.1%	16.3%	26.5%
AUCGUGCAUCCCUUUAGAGUGU [hsa-miR-517b-3p]	35.2%	-20.3%	14.6%
AACGCCAUUAUCACACUAAAUA [hsa-miR-122-3p]	131%	35.4%	-17.4%
UAUGUAAUAUGGUCCACAUCUU [hsa-miR-380-3p]	90%	-13.1%	0.458%
AGAGCUUAGCUGAUUGGUGAAC [hsa-miR-27b-5p]	78.6%	-22.4%	17.8%
AGGCAGUGUAGUUAGCUGAUUGC [hsa-miR-34c-5p]	13.2%	-6.79%	38.8%
CGCUCUAGGCACCGCAGCA [hsa-miR-1301-5p]	77.5%	95.7%	-24.1%
CCUGAGACCCUAGUUCCAC [hsa-miR-4329]	60.7%	1.67%	-7.16%
